Literature values as cited in article PMC2688729.

Molecular target: thrombomodulin (Homo sapiens) (UniProt P07204)

In the case of thrombin (from UniProt P00734), the Kd is listed as less than 1 nM.
